A short description of the series: yeast display, Sf9 membrane polyspecificity reagent, FACS + sequencing; frameworks hold sequencing errors. In short, it runs like this: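 Using colony PCR, genes from sorted yeast display clones were amplified, then sequenced on MiSeq at 2 × 250 and filtered by CDR length. The clones had been stained with 10% biotinylated, detergent-solubilized Sf9 membrane reagent for 1 hour at 4 °C and sorted by FACS into low and high (top ~1%) gates on anti-HA and streptavidin fluorescence. Polyreactivity labels come from the gate of origin.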
Regarding “QVQLVESGAGLVQAGGSLRLICAATGFTLGSNAMGSYRKAPGKERELVAAISKSGGSTYYADSVKGRFTISRDNAKNTVYLQMNSLKPDDTAVYYCAARYLYQGYRYDYWGQGTQVTVSS”, the “polyreactivity (PSR sort gate)” value was “high polyreactivity”.
In the case of “QVQLVESGAGLVQAGGSLRLSCAASGFNFRENAMGWYRQAPGKERELVAAISRSGGSTYYADSVKGRFTISRDNAKNTVYLQMNSLKPEDTAVYYCAAPKDYDYWGQGTKVTVSS” it was “low polyreactivity”.
As for “QVQLVESGAGLVQAGGSLRLSCAASGFTFYPYAMGLYRQAPGKERELVAAINSGGSTYYADSVKGRFTISRDNAKNTVYLQMNSLKPEDTAVYYCAAYGKRGAVAFYYWGQGTQVTVSS”, the “polyreactivity (PSR sort gate)” value is given as “high polyreactivity”.
With “QVQLVESGAGLVQAGGSLRLSCAASGLTFALYAMGGYRQAPGKERELVAAIDWSGGITYYADSVKGRFTISRDNAKNTVYLQLNSLKPEDTAVYYCAARPSTFKYKYGYWGQGTQVTVSS” the entry was “high polyreactivity”.
In the case of “QVQLVESGAGLVQAGGSLRLSCAASGLTFDYYAMGWYRQAPGKEREFVAAITRRGGGTYYADSVKGRFTISRDNAKNTVYLQMNSLKPEDTAVYYCAAYGCGNRWYSRFDYWGQGTQVTVSS” it was “high polyreactivity”; in that of “QVQLVESGAGLVQAGGSLRLSCAASGRIFGYYAMGWYRQAPGKERELVAAITRGGSTYYADSVKGRFTISRDNAKHTVYLQMNSLKPEDTAVYFCAANISGLVKYENDYWGQGTQLTVSS”, “low polyreactivity”.
With “QVQLVESGAGLVQAGGSLRLSCAASGRIFRVYAMGWYRQAPGQERELVAAITSGGTTYADSVKGRLTISRDNAKKTVYLQMNILKPEDTAVYYCAARYYIHRGYDYDYWGQGTQVTVSS” the entry was “high polyreactivity”; with “QVQLVESGAGLVQAGGSLRLSCAASGRNFWYYAMGLYRQAPGKERELVAGITYGDGSTYYADSVKGRFTISRDNAKNTVYLQMNSLKPEDTAVYYCAVDLRSYWFRYGFDYWGQGTQVTVSS”, “low polyreactivity”; with “QVQLVESGAGLVQAGGSLRLSCAASGRTFDKYAMGWYRQAPGKDRELVAAISGSGGRTYYADSVKGSFTISRDIAKNTVYLQMNSLKPEDTAFYYCAGDTGSYTYYYWGKGTQVTVSS”, “high polyreactivity”.
On to “QVQLVESGAGLVQAGGSLRLSCAASGRTFHGYAMGWYRQAPRKERELLARINWSDGRTYYADSVKGRFTISRDNAKNTVFLQMNSLKPEDTAVYYCAADKTVSYAPAWYYYWGQGTQVTVSS”, for which the “polyreactivity (PSR sort gate)” value was “low polyreactivity”.
With “QVQLVESGAGLVQAGGSLRLSCAASGRTFWVYSMGWSRQAPGKESELVAAFRRGGITNYADSVKGRFTISRDNAKITVYLQMNCLNPEDTAVYYCATENYGYLTRYYYWGPGTQVTVSS” the entry was “low polyreactivity”; with “QVQLVESGAGLVQAGGSLRLSCAASGRTIGVYAMGWYRQAPGKERELVAAISWSGGTTYYADSVKGRFTISRDNAKNTVYLQMNSLKPEDTAVYYCAADSYTEVDYWGQGTQVTVSS”, “low polyreactivity”.
As to “QVQLVESGAGLVQAGGSLRLSCAASGRTVAWNAMGRYRQAPGKERELVAAISWSGTSTYYADSVKGRFTISRDNAKNTVYLQMNSLKPEDTAVYYCATSVKARQIYGYYYWGQGTQVSVSS”, the “polyreactivity (PSR sort gate)” value is “high polyreactivity”.
For “QVQLVESGAGLVQAGGSLRLSCAASGSIFFSYAMGWSRQAPGKERELVAGINWSGGSTYADSVKGRFTISRDNAKNTVYLQMNSLKPEDTAVYYCAAKYYSERSRYHYWGQGTQVTVSS”, the “polyreactivity (PSR sort gate)” value was “low polyreactivity”.
With “QVQLVESGAGLVQAGGSLRLSCAASGSIFGRDTMGWYRQAPGKERELVAAINLRGGSTYYADSVKGRFTISRDNAKNTVYLQMNSLKPEDTAVYYCATDGWKQSAYDYWGQGTQVTVSS” the entry was “low polyreactivity”.
With “QVQLVESGAGLVQAGGSLRLSCAASGSIFIHYAMGWYRQARGKERELVAAITGDGNTTYADSVKGRFTISRDNAQNTVNLQINSLKPEDTAVYYCAVTIVDYYWAFDYWGQGTQVTVSS” the entry was “low polyreactivity”; with “QVQLVESGAGLVQAGGSLRLSCAASGSIFNYYAMVWYRQAPGKERELFAGITTSGGSTYYADSVKGSFTISRDNAKNSVYLQMKSLKPVDTAVYYCGAYDHISSTYFLDDSWGQGTQVTVSS”, “low polyreactivity”; with “QVQLVESGAGLVQAGGSLRLSCAASGSIFQPYAMGWYRQAPGKERELVAAISSSGGSTTYADSVKGRFTISRDNAKNTVYLQMNSLKPEDTADYYCAADSADDMGYWGQGTQVTVSS”, “low polyreactivity”.
With “QVQLVESGAGLVQAGGSLRLSCAASGSIFVVYAMGWYRQAPWKERELVAAISWGIGSTYYADSVKGRFTISRDNAKNTVYLQMNSLKPEDTAVYYCAADTDIVLYDYWGQGTQVTVSS” the entry was “low polyreactivity”; with “QVQLVESGAGLVQAGGSLRLSCAASGSILDEYAMGWYRQPPGKERELVAAISSSGTSTYYADSVKGRFTISRDNAKNTVYLQMNSLKPEDTAVYYCARVKQHTSHRVPGDDYWGQGTQLTVSS”, “low polyreactivity”.
Take “QVQLVESGAGLVQAGGSLRLSCAASGSIYTLNAMGWYRQAPGKEMELVAAITSSGTGTYYADSVKGRFTISRDNAKNTVYLQMNSLKPEDTAVYYCAKDRPYWLSYGSWFKFNYWGQGTQVTVSS”: the “polyreactivity (PSR sort gate)” value is given as “low polyreactivity”.
With “QVQLVESGAGLVQAGGSLRLSCAASGSTFNHYAMGWYRPAPGKDRELVAAITWSGDSTYYADSVKGRFTISRDNAKNTVYLQMNSLKPEDTAVYDCNTYRIFGYSPYYAGYDYWGQGTQVTVSS” the entry was “low polyreactivity”; with “QVQLVESGAGLVQAGGSLRLSCAASGSTFPVYAMGWYRQAPGKEREFVAAITYSGARTYYADSVKGRFTISRDNAKNTVYLQMNSLKPEDTAVYYCNAVPYRYLLHGTRCPFSRGYDSWGQGTQVTVSS”, “high polyreactivity”; with “QVQLVESGAGLVQAGGSLRLSCAASGSTFYFNGMGWYRQAPGKERELVAAISSTGNTYYADSVKGRFTISRDNAKNTVYLQMNSLKPEDTAVNDCLAGSSEAGYYWGHGTQVTVSS”, “high polyreactivity”.
Take “QVQLVESGAGLVQAGGSLRLSCAASGTTFWKYVMGWYRQAPGKERELVAAITSRGGSTYADSVKGRFTISRDNAKNSVYLQMNSLKPEDTAVYYCAATKFWYYGYDYWGQGTQVTVSS”: the “polyreactivity (PSR sort gate)” value is “low polyreactivity”.
Regarding “QVQLVESGAGLVQAGGSLRLSCAASGYIFRQYAMGRYRQAPGTEREFVAAISQTGGSTYYADSVKRRFTLSRDNAKNTVYFQMNSLKPVDTAVYYCAARYRGQRYRKLDYWGQGTQVTVSS”, the “polyreactivity (PSR sort gate)” value is given as “high polyreactivity”.
In the case of “QVQLVESGAGLVQAGGSLRLSCADSGSTFQPYAMGWYRQAPGKEREFVATISGSAGSKYYADSVKGRFKISRDNAKNTVYLQKNSLKPEDTAVYYCNADSGWFGYDYWGQGTQVTVSS” it was “low polyreactivity”; in that of “QVQLVESGAGLVQAGGSLRLSCPASGYIFWWTALGWSRQQPGKERELVAGISWSGSTTYYADSVKGRFTISRDNAKNTVYLQMNSLNPEDTAVYYCNAADITLYDYDYWGQGTQVTVSS”, “low polyreactivity”.
In the case of “QVQLVESGAGLVQAGVSLRLSCAASGSILTDSAMGWYIQAPGKERELVATISNGGSTNYADSVKGRFTISRDNAKNTVYLKMNSLKPEDTAVYYCNAEPGVPSWELDYWGQGTQVTVSS” it was “low polyreactivity”; in that of “QVQLVESGAGLVQARGSLRLSCAASGIILYVNAMGWYRQAPGKERELVAAISWGGGSTYYADSVKGRFTISRDNAKNNVYLQMNSLKPEDTAVYYCAAEFWSGYPTYTYDFWGQGTQVTVSS”, “low polyreactivity”.
With “QVQLVESGAGLVQEGGSLRLICAASGRTFRGSDMGWYSPAPGKERELVAAITSGGSTNYADSVKGRFTISRDNAKNTVYLHMNSLKPEDPAVYYCNRDTSKYGLWRYIYDYWGQGTQVNVSS” the entry was “low polyreactivity”; with “QVQLVESGEGLVQARGSLRLSCAASGYTFLGYAMGWYRQAPGKERELVAAINRSGSSTYYADSVKGRFTISRDNAKNTVYLQMNSLKPEDTAVYYCNARSGNRYGPRYDYWGQGTKVTVSS”, “high polyreactivity”; with “QVQLVESGGALDQAGGSLRLSCAASGRIFKWYAKGWYRQAPGKERELVATISWSGGSTYYADSVKGRFTISRDNAKKTVYLQMNSLKPEDTAVYYCNADTWLALPGFDYWGQGTQVTVSS”, “high polyreactivity”.
“QVQLVESGGALLQAGGSLRLSCAASGGTFDTYAMGWYRQAPGKERELDAVIRASGGDTYYADSVKGRFTISRDNAKNTVYLQMNSLKPEDTAVYYCAAVLPFKYDYWGQGTQVTVSS”: the “polyreactivity (PSR sort gate)” value was “low polyreactivity”.
With “QVQLVESGGALLQAGGSLRLSCSASGRIFSANAMGWYRPAPGKERELVAAITYSGATTYYADSVKGRFTISRDNAKNTVYLQMTSLKPEDTAVYDCAADAGYTHYTAEEEYWGQGTQVTVSS”, the “polyreactivity (PSR sort gate)” value is “low polyreactivity”.
With “QVQLVESGGALVQAGGILRLSCAASGRTFQYNVMGWYRQAPGKEREFVAAITWNGGSTYYADSVKGRFTISRDKAKNTVYLQMISLKPEDPAVYYCAARWTKKLEYGYWGQGTQVTVSS” the entry was “low polyreactivity”; with “QVQLVESGGALVQAGGRLRLSCAASVYIQHKYAMGRYRQAPGKERDLVATISGGGGSTYYADSVKGRFTISRDNAKNTVYLQMNSLKPEDTSVYYCAKEYPWLPRSYEYWGQGTQVTVSS”, “low polyreactivity”; with “QVQLVESGGALVQAGGSLRLNCAASGRIFVYNDMGWYRQAPGNERDLVAAISSVGTTYYADSVKGRFTISRDNAKFTVYLQMKTLKPVETAVYDCDVTRYHSPPRYYFWGQGSQVTVSS”, “low polyreactivity”.
With “QVQLVESGGALVQAGGSLRLSCAASGFTFAFYAMGWYRQAPGKERELVAAISSRGGSTYYADSVKGRFTISRDNAKITVYLQMNSLKPEDTAVYYCAARGYYSVVEYYYWGQGTQVTVSS” the entry was “high polyreactivity”; with “QVQLVESGGALVQAGGSLRLSCAASGFTFSAYAMGWYRQAPVKEREMVASISRGGITNYADSVKGRFTISRDNAKNTVYLQMNSLQPEDTAFYYCAVDYSFRYDYVQRYYYWGQGTQVSVSS”, “high polyreactivity”.
For “QVQLVESGGALVQAGGSLRLSCAASGIIFTPYAMGWYRQAPGKERQLLAAISWSGGRTYYADSVKGRFTISRDNAKNTVYLQMNSLKPEATAVYYCNARRYWWPHYYEYDYWGQGTHVTVSS”, the “polyreactivity (PSR sort gate)” value is given as “high polyreactivity”.

The values above are taken from the nanobody polyreactivity screen of Harvey et al. (2022).
